Measured values published in patent publication US20210246199A1 (MIT, published 2021).
Where two headings read alike, the source gives them in different places.

B1: CK138 (scFv)
scFv: AIQMTRSPSSLSASVGDRVTITCRASQYHDGSAAWYQQKPGKAPKLLIYGASYLYSGVPSRFSGSRSGTDFTLTISSLQPEDFATYYCQQSSYSLITFGQGTKVEIKGTTAASGSSGGSSSGAEVQLVESDGGLVQPGGSLRLSCAASGFNLSYYGMHWVRQAPGKGLEWVAYIASYPGYTSYADSVKGRFTISADTSKNTAYLQMNSLRAEDTAVYYCARSGYSYSPYYSWFSAGMNYWGQGALVTVSS
notes: CK1 lineage
B2: CK157 (scFv)
scFv: DIQMTQSPSSLSASVGDRVTITCRASQSYGGVAWYQQKPGKAPKLLIYSASYLYSGVPSRFSGSRSGTDFTLTISSLQPEDFATYYCQQPSHLITFGQGTEVEIKGTTAASGSSGGSSSGAEVQLVESGGGLVQPGGSLRLSCAASGSNPYYYGGTHWVRQAPGEELEWVASIGSYPGYTDYADSVKGRFTISADTSKNTAYLQMNSLRAEDTAVYYCARHYYWYDATDYWGQGTLVTVSS
notes: CK2 lineage
B3: CK129 (scFv)
scFv: DIQMTQSPSPLSASVGDRVTITCRASQYGGYVAWYQQKPGKAPKLLIYGASLLYSGVPSRFSGGRSGTDFTLTISSLQPEDFATYYCQRGHALITFGQGTKVEIEGTTAASGSSGGSSSGAEVQLVESGGGLVQPGGSLRLSCAASGFNISSYGSMHWVRQAPGKGLEWVASIYPYSSSTYYADSVKGRFTISADTSKNTAYLQMNSLRAEDTAVYYCARGYGPWYAYSYFALDYWGQGTLVTVSS
notes: CK4 lineage

Assays:
Experiment in all cases: scFv on yeast, soluble CXCL-SA; flow cytometry
[1] = molecular target: T1, ^NmCXCL1-SA^C (KC/mCXCL1 25-96 fused to mouse serum albumin) (mouse, UniProt P12850 25-96; P07724 25-608)
T1 construct: soluble form
Procedure: (§1) In brief, DNA plasmids encoding single protein binder clones were transformed into genetically modified Saccharomyces cerevisiae yeast cells (EBY100 strain) using Frozen-EZ Yeast Transformation II Kit (Zymo Research) and plated on selective SD-CAA solid agar media. Individual colonies were inoculated in 5 mL SD-SCAA cultures, grown to mid-log phase (0D600=2-5) in SD-CAA media at 30° C. with shacking (250 rpm). Cells were induced in galactose-containing SG-CAA media for 20 hours at 20° C. with shacking (250 rpm) as previously described (Angelini, A. et al. Protein Engineering and Selection Using Yeast Surface Display. Methods Mol Biol 1319, 3-36 (2015)). The binding assays were conducted in 96-well plates (Corning) containing 1×10⁴ induced cells per well. […] Yeast cells displaying protein binders were incubated with varying concentration of soluble CXC chemokine fusions (^NCXCL-SA^S) bearing the His6 tag and the primary chicken anti-c-myc epitope tag (1:1000) antibody (Gallus Immunotech) overnight at 4° C. with shaking (150 rpm). […] After primary incubation, cells were pelleted (2500× g for 5 min at 4° C.) and washed twice with 200 μL ice-cold PBSA buffer. Secondary labeling was performed with goat anti-chicken and mouse anti-His6 epitope tag antibodies conjugated to Alexa Fluor dyes at recommended dilutions.

[2] = molecular target: T2, ^NmCXCL5-SA^C (LIX/mCXCL5 48-118 fused to mouse serum albumin) (mouse, UniProt P50228 48-118; P07724 25-608)
T2 construct: soluble form
Procedure: as §1

[3] = molecular target: T3, ^NmCXCL10-SA^C (Ip-10/mCXCL10 22-98 fused to mouse serum albumin) (mouse, UniProt P17515 22-98; P07724 25-608)
T3 construct: soluble form
Procedure: as §1

[4] = molecular target: T4, ^NhCXCL6-SA^C (GCP-2/hCXCL6 43-114 fused to mouse serum albumin) (human; mouse, UniProt P80162 43-114; P07724 25-608)
T4 construct: soluble form
Procedure: as §1

[5] = molecular target: T5, ^NmCXCL2-SA^C (MIP-2/mCXCL2 28-100 fused to mouse serum albumin) (mouse, UniProt P10889 28-100; P07724 25-608)
T5 construct: soluble form
Procedure: as §1

[6] = molecular target: T6, ^NhCXCL4-SA^C (PF-4/hCXCL4 32-101 fused to mouse serum albumin) (human; mouse, UniProt P02776 32-101; P07724 25-608)
T6 construct: soluble form
Procedure: as §1

[7] = molecular target: T7, ^NmCXCL3-SA^C (DCIP-1/mCXCL3 28-100 fused to mouse serum albumin) (mouse, UniProt Q6W5C0 28-100; P07724 25-608)
T7 construct: soluble form
Procedure: as §1

[8] = molecular target: T8, ^NhCXCL3-SA^C (Groγ/hCXCL3 35-107 fused to mouse serum albumin) (human; mouse, UniProt P19876 35-107; P07724 25-608)
T8 construct: soluble form
Procedure: as §1

[9] = molecular target: T9, ^NhCXCL1-SA^C (Groα/hCXCL1 35-107 fused to mouse serum albumin) (human; mouse, UniProt P09341 35-107; P07724 25-608)
T9 construct: soluble form; also called Groa
Procedure: as §1

[10] = molecular target: T10, ^NhCXCL5-SA^C (ENA-78/hCXCL5 44-114 fused to mouse serum albumin) (human; mouse, UniProt P42830 44-114; P07724 25-608)
T10 construct: soluble form
Procedure: as §1

[11] = molecular target: T11, ^NhCXCL2-SA^C (Groβ/hCXCL2 35-107 fused to mouse serum albumin) (human; mouse, UniProt P19875 35-107; P07724 25-608)
T11 construct: soluble form
Procedure: as §1

[12] = molecular target: T12, ^NhCXCL8-SA^C (IL-8/hCXCL8 28-99 fused to mouse serum albumin) (human; mouse, UniProt P10145 28-99; P07724 25-608)
T12 construct: soluble form
Procedure: as §1

[13] = molecular target: T1, ^NmCXCL1-SA^C (KC/mCXCL1 25-96 fused to …); remark: listed apart in the source
Procedure: as §1

[14] = molecular target: T2, ^NmCXCL5-SA^C (LIX/mCXCL5 48-118 fused …); remark: listed apart in the source
Procedure: as §1

[15] = molecular target: T5, ^NmCXCL2-SA^C (MIP-2/mCXCL2 28-100 …); remark: listed apart in the source
Procedure: as §1

[16] = molecular target: T9, ^NhCXCL1-SA^C (Groα/hCXCL1 35-107 fused …); remark: listed apart in the source
Procedure: as §1

[17] = molecular target: T10, ^NhCXCL5-SA^C (ENA-78/hCXCL5 44-114 …); remark: listed apart in the source
Procedure: as §1

[18] = molecular target: T12, ^NhCXCL8-SA^C (IL-8/hCXCL8 28-99 fused …); remark: listed apart in the source
Procedure: as §1

[19] = molecular target: these chemokines (the six ELR+ CXC chemokines recognized by CK138)
[20] = molecular target: T13, ^NhCXCL10-SA^C (IP-10/hCXCL10 22-98 fused to mouse serum albumin) (human; mouse, UniProt P02778 22-98; P07724 25-608)
T13 construct: soluble form
Procedure: as §1

[21] = molecular target: T14, ^NmCXCL7-SA^C (Nap-2/mCXCL7 48-113 fused to mouse serum albumin) (mouse)
T14 construct: soluble form
T14 chain: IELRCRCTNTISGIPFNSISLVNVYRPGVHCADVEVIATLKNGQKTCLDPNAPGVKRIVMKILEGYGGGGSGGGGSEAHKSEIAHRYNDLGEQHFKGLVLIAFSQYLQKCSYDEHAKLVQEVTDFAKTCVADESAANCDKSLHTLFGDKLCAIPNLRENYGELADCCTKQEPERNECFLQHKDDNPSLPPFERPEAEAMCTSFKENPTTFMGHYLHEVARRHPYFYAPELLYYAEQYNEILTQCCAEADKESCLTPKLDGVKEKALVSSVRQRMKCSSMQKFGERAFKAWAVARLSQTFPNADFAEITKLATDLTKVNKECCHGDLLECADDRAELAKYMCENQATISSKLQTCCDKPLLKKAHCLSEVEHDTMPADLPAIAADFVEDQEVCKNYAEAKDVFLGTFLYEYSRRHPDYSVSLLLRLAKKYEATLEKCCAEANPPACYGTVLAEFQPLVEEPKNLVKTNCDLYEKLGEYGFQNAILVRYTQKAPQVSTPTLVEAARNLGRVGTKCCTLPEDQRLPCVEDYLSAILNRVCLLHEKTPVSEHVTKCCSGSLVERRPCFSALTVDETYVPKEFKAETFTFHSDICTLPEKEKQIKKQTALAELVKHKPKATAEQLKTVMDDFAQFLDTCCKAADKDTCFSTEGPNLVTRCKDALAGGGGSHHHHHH
Procedure: as §1

[22] = molecular target: T15, ^NmCXCL4-SA^C (Pf-4/mCXCL4 30-105 fused to mouse serum albumin) (mouse, UniProt Q9Z126 30-105; P07724 25-608)
T15 construct: soluble form
Procedure: as §1

[23] = molecular target: T16, ^NhCXCL11-SA^C (I-TAC/hCXCL11 22-94 fused to mouse serum albumin) (human; mouse, UniProt O14625 22-94; P07724 25-608)
T16 construct: soluble form
Procedure: as §1

[24] = molecular target: T17, ^NmCXCL11-SA^C (I-Tac/mCXCL11 22-100 fused to mouse serum albumin) (mouse, UniProt Q9JHH5 22-100; P07724 25-608)
T17 construct: soluble form
Procedure: as §1

five targets (of CK157) = molecular target: five targets (of CK157)

Binder	Kd [1] [nM]	Kd [2] [nM]	Kd [3] [nM]	Kd [4] [nM]	Kd [5] [nM]	Kd [6] [nM]	Kd [7] [nM]	Kd [8] [nM]	Kd [9] [nM]	Kd [10] [nM]	Kd [11] [nM]	Kd [13] [nM]	Kd [14] [nM]	Kd [15] [nM]	Kd [16] [nM]	Kd [17] [nM]	also measured
B1	35.7	176	500	153	29.1	167	10.9	349	41.5	5.8	267	34.8	193	36.2	61.9	5.8	Kd [12]: 6.9 nM; Kd [18]: 7.4 nM; fold improvement in affinity relative to the parental CK1 [19]: 30 to 340 fold
B2	24.3	96.9	44.4	46.6	19.9	112	17.4	53.9	61.1	26.3	57.9	20.6	57.1	18.2	36.2	16.9	Kd [20]: 45.5 nM; Kd [21]: 13.6 nM; Kd [22]: 17.1 nM; Kd [23]: 131 nM; Kd [24]: 124 nM; fold improvement in affinity compared to the initial CK2 (five targets (of CK157)): 20 to 55 fold
B3	1.1	–	–	–	–	–	–	5.7	1	–	13.9	0.93	–	–	0.79	–	fold increase in affinity (against the parental CK4 clone) [13]: 800 fold; fold increase in affinity (against the parental CK4 clone) [16]: 50 fold
